Results: publication doi:10.1101/2022.02.28.482149 (bioRxiv, 2022)

Molecular target: the molecule itself
Assay: crystal structure

B1: MaFRSA (Methanomethylophilus alvus pyrrolysyl-tRNA synthetase, MaPylRS N166A:V168A) (enzyme)
chain: MTVKYTDAQIQRLREYGNGTYEQKVFEDLASRDAAFSKEMSVASTDNEKKIKGMIANPSRHGLTQLMNDIADALVAEGFIEVRTPIFISKDALARMTITEDKPLFKQVFWIDEKRALRPMLAPNLYSVMRDLRDHTDGPVKIFEMGSCFRKESHSGMHLEEFTMLALADMGPRGDATEVLKNYISVVMKAAGLPDYDLVQEESDVYKETIDVEINGQEVCSAAVGPHYLDAAHDVHEPWSGAGFGLERLLTIREKYSTVKKGGASISYLNGAKIN
B1: binds.
